# According to patent WO2021228904A1 (dated 2021):
# Biological target: SARS-CoV-2 receptor binding domain (RBD), amino acids 319-541, octahistidine tag (SARS-CoV-2, UniProt P0DTC2 319-541)
# Assay: not named there; ELISA in Example 4
row,Binder,binding result
1,"SEQ ID NOs: 461/465 (HCVR/LCVR) (antibody, V domains shown) VH: EVQLVESGAEVKKPGSSVKVSCKASGGTFSSYAISWVRQAPGQGLEWMGGIIPIFGTANYAQKFQGRATITTDESTSTAYMELSSLGSEDTAVYYCARTHSYDNSGQYFDYWGQGTMVTVSS VL: DIVMTQSPATLSLSPGERATLSCRASQSVSSFLAWYQQKPGQAPRLLIYDASNRATGIPARFSGSGSGTDFTLTISSLEPEDFAVYYCQQRSNWPPRLTFGGGTKVDIK",binds
2,"SEQ ID NOs: 421/425 (HCVR/LCVR) (antibody, V domains shown) VH: EVQLVQSGAEVKKPGASVKVSCKASGYTFTSYDINWVRQATGQGLEWMGWMNPNSGNTGYAQKFQGRVTMTRNTSISTAYMELSSLRSEDTAVYYCARVVGSSWYPVDAFDIWGQGTRVTVSS VL: QSVLTQPASVSGSPGQSITISCTGTSSDVGGYNYVSWYQQHPGKAPKLMIYDVSNRPSGVSNRFSGSKSGNTASLTISGLQAEDEADYYCSSYTSSSTLVVFGGGTKLTVL",binds
3,"002_P2C4 (antibody, V domains shown) VH: QVQLVESGAEVKKPGSSVKVSCKASGGTFSSYGINWVRQAPGQGLEWMGGIIPIFGTANYAQKFQGRVTITTDESTSTAYMELSSLRSEDTAVYYCASFGDDSGDEGVRWGQGTLVTVSS VL: EIVMTQSPATLSLSPGERATLSCRASQSVSSYLAWYQQKPGQAPRLLIYDASNRATGIPARFSGSGSGTDFTLTISSLEPEDFAVYYCQQRSNWPPYTFGQGTKVEIK",binds
4,"SEQ ID NOs: 217/221 (HCVR/LCVR) (antibody, V domains shown) VH: EVQLVESGGGLVQPGGSLRLSCAASGFTFSSYDMHWVRQTTGKGLQWVSAIGTAGDTYYPGSVKGRFTISRENAKNSLYLQMNSLRAGDTAVYYCARGGDRYPVGYFDLWGRGTLVTVSS VL: not shown",binds
5,"SEQ ID NOs: 653/657 (HCVR/LCVR) (antibody, V domains shown) VH: EVQLVESGGGLVQPGRSLRLSCAASGFTFDDYAMHWVRQAPGKGLEWVSGISWNSGSIGYADSVKGRFTISRDNAKNSLYLQMNSLRAEDTALYYCAKMGPDPAHDYGRKNDAFDIWGQGTMVTVSS VL: DIVMTQSPSSLSASVGDRVTITCRASQSMSSYLNWYQQKPGKAPKLLIYAASSLQSGVPSRFSGSGSGTDFTLTISSLQPEDFATYYCQQSYSTLTFGGGTKLEIK",binds
6,"SEQ ID NOs: 621/625 (HCVR/LCVR) (antibody, V domains shown) VH: QVQLVQSGAEVKKPGASVKVSCKVSGYTLTELSMHWVRQAPGKGLEWMGGFDPEDGETIYAQKFQGRVTMTEDTSTDTAYMELSSLRSEDTAVYYCATAYSVDTAMVRGVGYWGQGTLVTVSS VL: not shown",binds
7,"SEQ ID NOs: 661/665 (HCVR/LCVR) (antibody, V domains shown) VH: EVQLVESRAEMKKPGESLKISCKGSGYTFTNHWIAWVRQMPGKGLEWMGIIYPGDSDTRYSPSFEGQVTISADKSISTAYLQWSSLKASDTAMYYCARRGYTYGADFYGLDVWGQGTRVTVSS VL: not shown",binds
8,"SEQ ID NOs: 57/61 (HCVR/LCVR) (antibody, V domains shown) VH: not shown VL: QSVLTQPASVSGSPGQSITISCTGTSSDVGGYNYVSWYQQHPGKAPKLMIYDVSNRPSGVSNRFSGSKSGNTASLTISGLQAEDEADYYCSSYTSSSTRHWVFGGGTKLTVL",binds
9,"SEQ ID NOs: 557/561 (HCVR/LCVR) (antibody, V domains shown) VH: EVQLVESGGGVVQPGRSLRLSCAASGFTFSSYAMHWVRQAPGKGLEWVAVISYDGSYKYYADSVKGRFTISRDNSKNTLYLQMNSLTAEDTAVYYCAREGSRQWLVIYFDYWGQGTLVTVSS VL: AIRMTQSPSSLSASVGDRVTITCRASQSISSYLNWYQQKPGKAPKLLIYAASSLQSGVPSRFSGSGSGTDFTLTISSLQPEDFATYYCQQSYTTFIYTFGQGTKLEIK",binds
10,"SEQ ID NOs: 493/497 (HCVR/LCVR) (antibody, V domains shown) VH: EVQLVQSGAEVKKPGESLKISCKGSGYSFTSYWIDWVRQMPGKGLEWMGIFYPGDSDTRYSPSFQGQVTISADKSISTAYLQWSSLKASDTAMYYCARHNPDYYDSSGPLDYWGQGTLVTVSS VL: not shown",binds
11,"001_P1G11 (antibody, V domains shown) VH: EVQLVQSGTEVKKPGASVKVSCKASGYTFPGYYIHWVRQAPGQGLEWMGWINPNSGVAKSAQKFQGRVTMTRDSSISTVYLDVTSDDTAVYYCARDLVWATVSGTMDVWGQGTTVTVSS VL: QSALTQPPSASGSPGQSVTISCTGTSSDIGTYNYVSWYQQHPGKAPKLMIYEVTKRPSGVPDRFSGSKSGNTASLTVSGLQADDEGDYYCSSYVGNNNWVFGGGTKLTVL",binds
12,"SEQ ID NOs: 73/77 (HCVR/LCVR) (antibody, V domains shown) VH: EVQLVESGGGLVQPGGSLRLSCAASGFTVTSTYMTWVRRAPGKGLEWVSIIYNDDTTYYADSVKDRVTVSRDDSKNTLYLQMNSLRAEDTAIYYCARGGYYYDPSGYYSRSFSFDYWGQGTLVTVSS VL: NFMLTQPASVSGSPGQSITISCTGSSSDIAPYTFVSWYQQHSGTAPKLIIYDVRNRPSGISDRFSGSRSGNTASLSISGLQAEDEADYYCSAYTTTSTSWVFGGGTKLTVL",binds
